We go through one molecule from US20230295324A1 (published 2023).

Test [1] has as its target T1, human OX40 on cells (CHO-K1/hu OX40) (human, UniProt P43489 29-277).
T1 sequence (looked up): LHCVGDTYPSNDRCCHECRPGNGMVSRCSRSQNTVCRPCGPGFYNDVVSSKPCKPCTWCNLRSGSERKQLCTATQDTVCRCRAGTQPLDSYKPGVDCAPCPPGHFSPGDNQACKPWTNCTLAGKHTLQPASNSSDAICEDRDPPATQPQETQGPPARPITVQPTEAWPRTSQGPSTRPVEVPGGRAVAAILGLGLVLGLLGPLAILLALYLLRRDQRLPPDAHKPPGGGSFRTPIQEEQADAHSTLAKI
The test is described as follows: cell-based or functional assay.

Test [2] deals with T2, human OX40 protein (Acro biosystem, #OX0-H5224) (human, UniProt P43489 29-216).
T2 construct: Bought recombinant protein
T2 sequence (looked up): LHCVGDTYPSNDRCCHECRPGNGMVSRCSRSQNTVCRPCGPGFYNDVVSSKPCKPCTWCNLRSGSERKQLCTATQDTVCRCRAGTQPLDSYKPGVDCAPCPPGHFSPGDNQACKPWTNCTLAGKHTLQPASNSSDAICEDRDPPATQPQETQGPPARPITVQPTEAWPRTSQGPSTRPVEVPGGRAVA
Description: ELISA, coated human OX40 protein.

Test [3] concerns the target T2, human OX40 protein (Acro biosystem, …). Description: BLI, antibody on ProA sensor, 1:1 global fit. As for the experimental part: (§1) The binding kinetics between the antigen and the antibody was analyzed by the Biolayer Interferometry (BLI) technique using an Octet Red 96e molecular interaction analyzer (Fortebio).
(§2) The association and dissociation signals between the OX40 antibodies and OX40 proteins were recorded by Octet Red 96 in real time. When data analysis was performed using Octet Data Analysis software (Fortebio, version 11.0), 0 nM was used as a reference hole, and reference subtraction was performed; the “1:1 Global fitting” method was selected to fit the data, and the kinetics parameters of the binding of antigens to antigen-binding proteins were calculated, with kon(1/Ms) values, kdis(1/s) values and KD(M) values obtained.

Test [4] deals with T3, cynomolgus monkey OX40 protein (Novoprotein, #CB17) (cynomolgus monkey).
T3 construct: Bought recombinant protein; also called cyno OX40
Description: BLI, antibody on ProA sensor, 1:1 global fit. The protocol: as §1, §2

For test [5], the target named is T1, human OX40 on cells (CHO-K1/hu OX40). Description: FACS, blocking of biotin-human OX40L on CHO-K1/hu OX40 cells.

B1: PR002067 (antibody, human IgG1, V domains shown)
VH: EVQLLESGGGLVQPGGSLRLSCAASGFTFSSYAMSWVRQAPGKGLEWVSAISGRGGSTFYADSVRGRFTISRDNSKNTLYLQMNSLRAEDTAMYYCVDGTTGTTDVDYWGQGTLVTVSS
notes: no light chain; also called anti-OX40 HCAb antibody
Regarding B1, in test [1], the “EC50, IFN-γ release by human T cells with OKT3 and CHO-K1-CD32b cells” value is 0.0863 nM; the “Maximum IFN-γ release value” came out at 2000. In addition, in test [2], the EC50 stood at 0.0806 nM and the “Maximum OD” value came out at 2.38 OD. Further, in test [3], the Kd stood at 4.16 nM, the koff came out at 0.000156 s⁻¹ and the kon was 37400 M⁻¹ s⁻¹. In test [4], this molecule displayed a Kd of 19.2 nM, a koff of 0.000475 s⁻¹ and a kon of 24800 M⁻¹ s⁻¹. In test [5], it took 166 nM to reach half-maximal inhibition (IC50) and the “Maximum inhibition rate (%)” value worked out at 64%.
